Assay [1] concerns the target T1, ectodomain of murine βKlotho (F53 to L995 of SEQ ID NO: 218) with a C-terminal FLAG tag (murine, UniProt Q99N32 53-995).
T1 construct: Expressed in HEK293 cells and purified from culture media; also called βKlotho ectodomain; not shown: C-terminal FLAG tag
T1 sequence: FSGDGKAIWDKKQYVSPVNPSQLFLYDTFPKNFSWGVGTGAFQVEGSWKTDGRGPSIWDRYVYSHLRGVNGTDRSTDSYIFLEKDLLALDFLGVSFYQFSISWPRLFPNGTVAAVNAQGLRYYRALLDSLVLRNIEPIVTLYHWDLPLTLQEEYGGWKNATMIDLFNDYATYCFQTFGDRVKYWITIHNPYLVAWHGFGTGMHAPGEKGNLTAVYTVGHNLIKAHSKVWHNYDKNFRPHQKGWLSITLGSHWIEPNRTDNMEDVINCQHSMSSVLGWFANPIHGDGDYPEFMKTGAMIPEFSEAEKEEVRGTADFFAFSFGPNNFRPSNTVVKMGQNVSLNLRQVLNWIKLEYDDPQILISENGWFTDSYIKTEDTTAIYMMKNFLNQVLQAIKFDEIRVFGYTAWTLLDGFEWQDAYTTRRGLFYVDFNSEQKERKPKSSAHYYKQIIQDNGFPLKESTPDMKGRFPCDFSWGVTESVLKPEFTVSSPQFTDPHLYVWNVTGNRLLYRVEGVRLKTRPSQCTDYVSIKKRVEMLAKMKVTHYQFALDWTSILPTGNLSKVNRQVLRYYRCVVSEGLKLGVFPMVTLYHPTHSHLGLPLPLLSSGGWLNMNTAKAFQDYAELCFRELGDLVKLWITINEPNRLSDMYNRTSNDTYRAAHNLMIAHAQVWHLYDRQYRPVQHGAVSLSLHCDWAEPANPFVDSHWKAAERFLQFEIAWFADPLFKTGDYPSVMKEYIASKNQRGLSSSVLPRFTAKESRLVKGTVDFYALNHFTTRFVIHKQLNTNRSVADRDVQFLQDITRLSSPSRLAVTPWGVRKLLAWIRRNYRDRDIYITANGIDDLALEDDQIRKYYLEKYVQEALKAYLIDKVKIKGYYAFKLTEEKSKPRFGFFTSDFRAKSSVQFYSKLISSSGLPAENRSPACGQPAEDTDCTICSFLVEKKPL
Put plainly: SPR competition; FGF21 immobilized, fixed βKlotho ectodomain mixed with increasing chimera (FIGS. 7B, 7C). Here is the method: Increasing concentrations of FGF21 were mixed with a fixed concentration of βKlotho ectodomain, and the mixtures were passed over a FGF21 chip. […] Increasing concentrations of FGF21²⁹⁻¹⁹⁰/FGF19¹⁹⁷⁻²¹⁶ chimera were mixed with a fixed concentration of βKlotho ectodomain, and the mixtures were passed over a FGF21 chip. […] The figure was created from the data shown in FIGS. 7A-B, which are representative of two independent experiments.
SPR experiments were performed on a Biacore 2000 instrument (Biacore AB), and all the protein-protein and protein-peptide interactions were studied at 25° C. in HBS-EP buffer (10 mM HEPES-NaOH, pH 7.4, 150 mM NaCl, 3 mM EDTA, 0.005% (v/v) polysorbate 20). Proteins were immobilized by amine coupling on flow channels of research grade CM5 chips (Biacore AB). Proteins were injected over a CM5 chip at a flow rate of 50 μl min⁻¹, and at the end of each protein injection (180 s), HBS-EP buffer (50 μl min⁻¹) was flowed over the chip to monitor dissociation for 180 s. In experiments where βKlotho binding to FGFR was analyzed, the chip surface was then regenerated by injecting 50 μl of 2.0 M NaCl in 10 mM sodium/potassium phosphate, pH 6.5. In experiments where α/βKlotho binding to FGF19/21/23 or binding of the FGFR1c-βKlotho complex to FGF21 was studied, 2.0 M NaCl in 10 mM sodium acetate, pH 4.5 was used for chip regeneration. […]

Assay [2] has as its target T2, 1:1 binary complex of FGFR1c ligand-binding domain and βKlotho ectodomain (human; murine, UniProt P11362 142-365; Q99N32 53-995).
T2 construct: also called FGFR1c-βKlotho complex; FGFR1c-βKlotho; not shown: C-terminal FLAG tag
T2 sequence 1: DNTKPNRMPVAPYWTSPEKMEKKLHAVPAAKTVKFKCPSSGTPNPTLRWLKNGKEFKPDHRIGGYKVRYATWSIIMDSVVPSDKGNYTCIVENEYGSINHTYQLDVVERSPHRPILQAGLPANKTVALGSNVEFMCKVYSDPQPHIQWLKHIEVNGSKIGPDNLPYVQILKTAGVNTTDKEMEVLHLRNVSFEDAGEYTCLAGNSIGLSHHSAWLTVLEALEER
T2 sequence 2: T1 sequence
Put plainly: SPR competition; FGF21 immobilized, FGFR1c-βKlotho complex mixed with the chimera (FIGS. 15E, 15F). An excerpt: In the experiments shown in FIGS. 15A-15C, increasing concentrations of either an FGF21/FGF19 chimera or wild-type FGF21 were mixed with a fixed concentration of FGFR1c-βKlotho complex, and the mixtures were passed over a FGF21 chip. […] The data shown in FIGS. 15A-15C are representative of two to three independent experiments. Included in FIGS. 15E-15F are SPR sensorgrams obtained from injecting mixtures of the FGF21²⁹⁻¹⁹⁰/FGF19¹⁹⁷⁻²¹⁶ chimera with the FGFR1c-βKlotho complex over a FGF21 chip.
SPR experiments were performed on a Biacore 2000 instrument (Biacore AB), and all the protein-protein and protein-peptide interactions were studied at 25° C. in HBS-EP buffer (10 mM HEPES-NaOH, pH 7.4, 150 mM NaCl, 3 mM EDTA, 0.005% (v/v) polysorbate 20). Proteins were immobilized by amine coupling on flow channels of research grade CM5 chips (Biacore AB). Proteins were injected over a CM5 chip at a flow rate of 50 μl min⁻¹, and at the end of each protein injection (180 s), HBS-EP buffer (50 μl min⁻¹) was flowed over the chip to monitor dissociation for 180 s.

Assay [3] addresses T1, ectodomain of murine βKlotho (F53 to …). The experiment in a line: size-exclusion chromatography of the binary complex (FIG. 1A). Here is the method: Size-exclusion chromatography experiments were performed on a HiLoad™ 16/60 Superdex™ 200 prep grade column (GE Healthcare) mounted on an ÄKTApurifier (GE Healthcare). […] Sample injection volume was 0.9 to 2.0 ml, and the flow rate was 1.0 ml min⁻¹. Protein retention times were determined by absorbance at 280 nm. The column was calibrated with ferritin (440 kDa), immunoglobulin G (150 kDa), albumin (69.3 kDa), ovalbumin (44.3 kDa), carbonic anhydrase (28.8 kDa), and ribonuclease A (13.7 kDa). The void volume was determined using blue dextran 2,000, and the column volume was measured with acetone. To examine ternary complex formation between FGF21, FGFR1c, and βKlotho, 2.72 μmol of the 1:1 binary complex of FGFR1c ligand-binding domain and βKlotho ectodomain were mixed with 9.25 μmol of FGF21, and the mixture was applied to the size-exclusion column. The retention time of the FGFR1c-βKlotho complex alone served as a reference point. To examine ternary complex formation between FGF19, FGFR4, and βKlotho, 2.46 μmol of the 1:1 binary complex of FGFR4 ligand-binding domain and βKlotho ectodomain were mixed with 8.51 μmol of FGF19, and the mixture was applied to the size-exclusion column. The retention time of the FGFR4-βKlotho complex alone served as a reference point. […]
In general terms: In gel filtration, larger molecules generally elute earlier.

Assay [4] shares this target. Put plainly: SPR competition; FGF19 or FGF21 immobilized, fixed βKlotho ectodomain mixed with increasing peptide (FIGS. 5B, 5F). An excerpt: Residues that are identical between FGF19 and FGF21 are shaded gray. Note that 40% of these residues map to the most C-terminal sequence. […] FGF19 was immobilized on a biosensor chip, and mixtures of a fixed concentration of βKlotho ectodomain with increasing concentrations of FGF19^C-tail were passed over the chip. […] Mixtures of a fixed concentration of βKlotho ectodomain with increasing concentrations of FGF21^C-tail were passed over a biosensor chip onto which FGF19 had been immobilized. […] FGF21 was immobilized on a biosensor chip, and mixtures of a fixed concentration of βKlotho ectodomain with increasing concentrations of FGF21^C-tail were passed over the chip. […] Mixtures of a fixed concentration of βKlotho ectodomain with increasing concentrations of FGF19^C-tail were passed over a biosensor chip onto which FGF21 had been immobilized. […] The data shown in FIGS. 5B-G are representative of two to three independent experiments.

Assay [5] addresses FGFR1c endogenously expressed by HEK293 cells transiently transfected with murine βKlotho (UniProt P11362 22-822). Put plainly: cell-based or functional assay.
For assay [6], the target named is T2, 1:1 binary complex of FGFR1c …. The experiment in a line: SPR competition; FGF21 immobilized, complex mixed with the mutant at a molar ratio of 1:2 or 1:6 (FIG. 14B). Here is the method:
Increasing concentrations of FGF21 were mixed with a fixed concentration of FGFR1c-βKlotho complex, and the mixtures were passed over a FGF21 chip. […] In the experiments shown in FIGS. 14B-14C, FGFR1c-βKlotho complex was mixed with either mutant FGF21 or wild-type FGF21 at a molar ratio of 1:2 or 1:6, and the mixtures were injected over a FGF21 chip. The data shown in FIGS. 14A-14C are representative of two to three independent experiments.
SPR experiments were performed on a Biacore 2000 instrument (Biacore AB), and all the protein-protein and protein-peptide interactions were studied at 25° C. in HBS-EP buffer (10 mM HEPES-NaOH, pH 7.4, 150 mM NaCl, 3 mM EDTA, 0.005% (v/v) polysorbate 20). Proteins were immobilized by amine coupling on flow channels of research grade CM5 chips (Biacore AB). Proteins were injected over a CM5 chip at a flow rate of 50 μl min⁻¹, and at the end of each protein injection (180 s), HBS-EP buffer (50 μl min⁻¹) was flowed over the chip to monitor dissociation for 180 s. In experiments where βKlotho binding to FGFR was analyzed, the chip surface was then regenerated by injecting 50 μl of 2.0 M NaCl in 10 mM sodium/potassium phosphate, pH 6.5. In experiments where α/βKlotho binding to FGF19/21/23 or binding of the FGFR1c-βKlotho complex to FGF21 was studied, 2.0 M NaCl in 10 mM sodium acetate, pH 4.5 was used for chip regeneration.

FGFR1c endogenously expressed by HEK293 cells transiently transfected with murine βKlotho, sequence (P11362 22-822): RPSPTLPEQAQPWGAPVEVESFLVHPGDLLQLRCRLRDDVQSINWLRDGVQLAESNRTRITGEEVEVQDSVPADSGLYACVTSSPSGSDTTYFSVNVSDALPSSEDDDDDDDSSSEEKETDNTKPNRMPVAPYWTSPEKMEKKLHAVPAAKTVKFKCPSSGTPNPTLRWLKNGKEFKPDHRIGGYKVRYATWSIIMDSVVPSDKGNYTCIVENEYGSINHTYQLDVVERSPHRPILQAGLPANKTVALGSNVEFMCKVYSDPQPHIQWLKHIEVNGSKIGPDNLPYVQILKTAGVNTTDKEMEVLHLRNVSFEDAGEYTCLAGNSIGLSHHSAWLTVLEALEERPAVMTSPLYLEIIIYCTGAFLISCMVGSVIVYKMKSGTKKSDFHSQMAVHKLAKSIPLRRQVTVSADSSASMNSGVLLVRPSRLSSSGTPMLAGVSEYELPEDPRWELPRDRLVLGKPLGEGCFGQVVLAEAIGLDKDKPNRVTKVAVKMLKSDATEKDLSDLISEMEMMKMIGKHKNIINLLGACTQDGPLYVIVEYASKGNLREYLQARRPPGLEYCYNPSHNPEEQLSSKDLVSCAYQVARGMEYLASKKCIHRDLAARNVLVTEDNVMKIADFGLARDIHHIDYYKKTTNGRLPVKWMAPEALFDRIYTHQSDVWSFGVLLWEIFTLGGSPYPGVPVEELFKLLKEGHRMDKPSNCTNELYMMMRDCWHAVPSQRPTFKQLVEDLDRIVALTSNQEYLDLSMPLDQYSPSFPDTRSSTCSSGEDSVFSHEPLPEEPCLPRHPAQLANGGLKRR

B1: FGF21^29-190/FGF19^197-216 chimera (H29 to S190 of human FGF21 and M197 to K216 of human FGF19; SEQ ID NO: 206) (ligand)
chain: HPIPDSSPLLQFGGQVRQRYLYTDDAQQTEAHLEIREDGTVGGAADQSPESLLQLKALKPGVIQILGVKTSRFLCQRPDGALYGSLHFDPEACSFRELLLEDGYNVYQSEAHGLPLHLPGNKSPHRDPAPRGPARFLPLPGLPPALPEPPGILAPQPPDVGSMDPFGLVTGLEAVRSPSFEK
notes: Chimera of human FGF21 and human FGF19, purified from E. coli inclusion bodies; also called FGF21^C-tail variant 19-45
Consider B1, for which the binding result in assay [1] and in assay [2] was “binds” each time.

B2: ligand-binding domain of human FGFR1c (D142 to R365 of SEQ ID NO: 221) (receptor)
chain: T2 sequence 1
With B2, in assay [3], the binding result is given as “binds”.

B3: C-terminal tail peptide of human FGF19 (M171 to K216 of SEQ ID NO: 1), fused to a 50 residue-long N-terminal tag including a hexahistidine tag (peptide)
peptide: MVPEEPEDLRGHLESDMFSSPLETDSMDPFGLVTGLEAVRSPSFEK
notes: Expressed in E. coli and purified from the soluble lysate fraction; also called FGF19^C-tail; FGF19 C-terminal tail peptide; not shown: 50 residue-long N-terminal tag including a hexahistidine tag
Take B3: the binding result in assay [4] is “binds”.

B4: FGF21^29-167/FGF19^169-216 chimera (H29 to L167 of human FGF21 and L169 to K216 of human FGF19; SEQ ID NO: 207) (ligand)
chain: HPIPDSSPLLQFGGQVRQRYLYTDDAQQTEAHLEIREDGTVGGAADQSPESLLQLKALKPGVIQILGVKTSRFLCQRPDGALYGSLHFDPEACSFRELLLEDGYNVYQSEAHGLPLHLPGNKSPHRDPAPRGPARFLPLLPMVPEEPEDLRGHLESDMFSSPLETDSMDPFGLVTGLEAVRSPSFEK
Consider B4, for which, in assay [5], the “Induction of Egr1 protein expression (immunoblot, HEK293 cells co-expressing FGFR1c and βKlotho)” value is 10 fold lower concentration than native FGF21.

B5: Y207F single mutant of human FGF21 (SEQ ID NO: 232) (ligand)
chain: HPIPDSSPLLQFGGQVRQRYLYTDDAQQTEAHLEIREDGTVGGAADQSPESLLQLKALKPGVIQILGVKTSRFLCQRPDGALYGSLHFDPEACSFRELLLEDGYNVYQSEAHGLPLHLPGNKSPHRDPAPRGPARFLPLPGLPPALPEPPGILAPQPPDVGSSDPLSMVGPSQGRSPSFAS
notes: It was purified by the same protocol as the wild-type protein, which was H29 to S209; also called Y207F mutant of FGF21; single mutant FGF21
For B5, in assay [6], the binding result is given as “binds”.

(Values after patent US20130231277A1 (NEW YORK UNIVERSITY, published 2013).)
